Columns and labels:
[1] = test system: AncSZ; assay: phosphorylation enrichment, bacterial display (enrichment ratio); higher = better substrate or ligand; peptides without Tyr show the background
[2] = target: Fes (UniProt P07332); assay: as above
[3] = target: Hck (UniProt P08631); assay: as above
[4] = target: EPHB2 (UniProt P29323); assay: as above
[5] = target: Jak2 (UniProt O60674); assay: as above
[6] = target: Fyn (UniProt P06241); assay: as above
[7] = target: FGFR3 (UniProt P22607); assay: as above
[8] = target: FGFR1 (UniProt P11362); assay: as above
[9] = target: MERTK (UniProt Q12866); assay: as above
[10] = test system: c-Src; assay: as above
[11] = target: EPHB1 (UniProt P54762); assay: as above
[12] = test system: c-Abl (mouse); assay: as above
[13] = test system: Fer (mouse); assay: as above
[14] = target: Grb2 SH2 (UniProt P62993); assay: SH2 binding enrichment of the phosphorylated peptide, bacterial display (enrichment ratio); higher = better substrate or ligand; peptides without Tyr show the background
[15] = target: SHP2-C SH2; assay: as above
[16] = target: c-Src SH2; assay: as above
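For SH2 binding enrichment of the phosphorylated peptide, bacterial display in this document: peptide library displayed on the E. coli surface as eCPX fusions, selected cells deep-sequenced, score is each peptide's frequency after selection divided by its frequency in the input.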
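For phosphorylation enrichment, bacterial display in this document: 11-residue human phosphosite peptides and single-mutation variants displayed on the E. coli surface, counted by deep sequencing, each peptide's frequency after selection divided by its frequency in the unselected input library; frequency after pTyr selection over input frequency; kinase dosed for 20-30% of maximal phosphorylation in three min.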

Sequence of FGFR3 (P22607 whole entry, looked up): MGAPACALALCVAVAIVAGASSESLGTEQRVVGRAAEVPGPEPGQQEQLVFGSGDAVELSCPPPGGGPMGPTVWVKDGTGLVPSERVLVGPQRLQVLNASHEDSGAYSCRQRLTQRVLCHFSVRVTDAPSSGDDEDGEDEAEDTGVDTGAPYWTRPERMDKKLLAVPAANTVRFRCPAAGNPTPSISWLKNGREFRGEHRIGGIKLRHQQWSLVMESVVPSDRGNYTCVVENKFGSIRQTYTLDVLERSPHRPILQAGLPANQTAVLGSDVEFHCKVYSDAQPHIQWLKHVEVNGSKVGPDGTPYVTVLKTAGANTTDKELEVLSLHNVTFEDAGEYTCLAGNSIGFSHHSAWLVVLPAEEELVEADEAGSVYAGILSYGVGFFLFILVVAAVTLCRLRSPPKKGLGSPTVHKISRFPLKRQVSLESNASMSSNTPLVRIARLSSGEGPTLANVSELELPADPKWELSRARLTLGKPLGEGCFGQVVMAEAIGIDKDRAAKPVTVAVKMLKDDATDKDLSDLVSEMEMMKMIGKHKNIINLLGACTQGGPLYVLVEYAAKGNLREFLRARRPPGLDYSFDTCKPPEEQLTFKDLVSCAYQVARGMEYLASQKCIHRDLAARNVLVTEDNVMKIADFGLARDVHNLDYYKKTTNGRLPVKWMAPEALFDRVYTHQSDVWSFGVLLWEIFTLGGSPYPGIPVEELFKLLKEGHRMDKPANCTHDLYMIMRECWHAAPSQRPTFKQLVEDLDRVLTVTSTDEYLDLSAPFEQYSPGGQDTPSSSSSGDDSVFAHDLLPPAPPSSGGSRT
Sequence of FGFR1 (P11362 whole entry, looked up): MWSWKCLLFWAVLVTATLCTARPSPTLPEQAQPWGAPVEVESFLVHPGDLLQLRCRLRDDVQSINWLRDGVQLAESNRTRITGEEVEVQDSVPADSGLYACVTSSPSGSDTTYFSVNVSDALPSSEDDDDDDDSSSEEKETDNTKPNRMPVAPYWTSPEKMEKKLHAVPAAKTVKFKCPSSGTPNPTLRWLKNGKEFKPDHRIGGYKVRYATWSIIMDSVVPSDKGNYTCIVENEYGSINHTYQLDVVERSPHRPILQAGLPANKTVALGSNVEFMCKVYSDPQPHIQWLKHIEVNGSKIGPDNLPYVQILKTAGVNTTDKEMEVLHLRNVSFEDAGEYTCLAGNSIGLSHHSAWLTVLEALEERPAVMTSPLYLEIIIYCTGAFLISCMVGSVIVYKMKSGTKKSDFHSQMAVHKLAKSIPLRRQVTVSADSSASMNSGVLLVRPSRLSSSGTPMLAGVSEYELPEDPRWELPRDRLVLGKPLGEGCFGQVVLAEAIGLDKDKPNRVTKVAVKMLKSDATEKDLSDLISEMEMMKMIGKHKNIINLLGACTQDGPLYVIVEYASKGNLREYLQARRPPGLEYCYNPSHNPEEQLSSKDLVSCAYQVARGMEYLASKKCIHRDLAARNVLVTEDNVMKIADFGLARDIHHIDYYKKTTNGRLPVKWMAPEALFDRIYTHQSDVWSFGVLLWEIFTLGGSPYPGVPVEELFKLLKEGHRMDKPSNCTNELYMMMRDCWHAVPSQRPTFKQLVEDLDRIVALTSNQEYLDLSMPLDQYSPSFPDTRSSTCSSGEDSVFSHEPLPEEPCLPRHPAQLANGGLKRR
Sequence of Jak2 (O60674 whole entry, looked up): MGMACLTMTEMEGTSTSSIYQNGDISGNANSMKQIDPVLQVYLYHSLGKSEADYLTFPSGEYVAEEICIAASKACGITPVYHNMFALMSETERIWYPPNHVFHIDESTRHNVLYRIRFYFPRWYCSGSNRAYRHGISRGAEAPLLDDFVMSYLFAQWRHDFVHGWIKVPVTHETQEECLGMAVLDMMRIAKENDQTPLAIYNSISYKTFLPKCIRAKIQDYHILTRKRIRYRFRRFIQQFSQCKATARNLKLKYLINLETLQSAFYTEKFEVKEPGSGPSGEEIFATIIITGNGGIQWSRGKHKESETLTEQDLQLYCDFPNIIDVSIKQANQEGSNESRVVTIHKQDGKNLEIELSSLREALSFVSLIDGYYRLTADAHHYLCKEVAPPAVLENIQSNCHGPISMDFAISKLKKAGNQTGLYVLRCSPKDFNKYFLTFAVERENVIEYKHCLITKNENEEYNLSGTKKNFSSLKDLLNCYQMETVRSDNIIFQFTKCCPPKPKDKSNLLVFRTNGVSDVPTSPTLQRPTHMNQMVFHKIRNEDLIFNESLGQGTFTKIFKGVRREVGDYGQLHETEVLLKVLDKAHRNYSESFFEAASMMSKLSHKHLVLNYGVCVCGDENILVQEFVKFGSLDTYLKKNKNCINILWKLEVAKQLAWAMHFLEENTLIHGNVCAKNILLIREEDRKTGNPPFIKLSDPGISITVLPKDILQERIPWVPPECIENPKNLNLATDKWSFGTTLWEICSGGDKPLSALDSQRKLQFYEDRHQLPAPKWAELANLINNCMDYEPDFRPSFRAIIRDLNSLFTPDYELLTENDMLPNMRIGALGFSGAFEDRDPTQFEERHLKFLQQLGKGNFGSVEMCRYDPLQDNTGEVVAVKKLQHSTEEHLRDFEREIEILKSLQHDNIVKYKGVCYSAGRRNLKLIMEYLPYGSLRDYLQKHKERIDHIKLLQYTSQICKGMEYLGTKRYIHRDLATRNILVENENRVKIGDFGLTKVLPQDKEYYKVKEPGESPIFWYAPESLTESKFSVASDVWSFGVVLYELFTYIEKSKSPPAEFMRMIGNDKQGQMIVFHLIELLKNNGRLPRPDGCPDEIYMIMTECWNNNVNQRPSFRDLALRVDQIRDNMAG
Sequence of Hck (P08631 whole entry, looked up): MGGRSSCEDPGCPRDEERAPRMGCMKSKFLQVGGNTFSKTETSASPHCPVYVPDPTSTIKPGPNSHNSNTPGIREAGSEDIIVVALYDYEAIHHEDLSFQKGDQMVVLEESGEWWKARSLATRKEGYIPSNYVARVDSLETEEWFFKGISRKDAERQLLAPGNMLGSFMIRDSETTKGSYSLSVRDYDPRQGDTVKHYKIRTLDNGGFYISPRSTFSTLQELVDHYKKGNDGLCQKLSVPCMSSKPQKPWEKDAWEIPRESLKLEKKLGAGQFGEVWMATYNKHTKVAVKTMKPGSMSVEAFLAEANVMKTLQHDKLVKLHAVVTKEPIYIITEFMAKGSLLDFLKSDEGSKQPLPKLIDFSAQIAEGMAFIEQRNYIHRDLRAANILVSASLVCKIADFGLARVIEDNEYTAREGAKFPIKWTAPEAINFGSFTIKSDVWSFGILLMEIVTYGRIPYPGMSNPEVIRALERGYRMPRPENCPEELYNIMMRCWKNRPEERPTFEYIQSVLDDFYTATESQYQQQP
Sequence of Fyn (P06241 whole entry, looked up): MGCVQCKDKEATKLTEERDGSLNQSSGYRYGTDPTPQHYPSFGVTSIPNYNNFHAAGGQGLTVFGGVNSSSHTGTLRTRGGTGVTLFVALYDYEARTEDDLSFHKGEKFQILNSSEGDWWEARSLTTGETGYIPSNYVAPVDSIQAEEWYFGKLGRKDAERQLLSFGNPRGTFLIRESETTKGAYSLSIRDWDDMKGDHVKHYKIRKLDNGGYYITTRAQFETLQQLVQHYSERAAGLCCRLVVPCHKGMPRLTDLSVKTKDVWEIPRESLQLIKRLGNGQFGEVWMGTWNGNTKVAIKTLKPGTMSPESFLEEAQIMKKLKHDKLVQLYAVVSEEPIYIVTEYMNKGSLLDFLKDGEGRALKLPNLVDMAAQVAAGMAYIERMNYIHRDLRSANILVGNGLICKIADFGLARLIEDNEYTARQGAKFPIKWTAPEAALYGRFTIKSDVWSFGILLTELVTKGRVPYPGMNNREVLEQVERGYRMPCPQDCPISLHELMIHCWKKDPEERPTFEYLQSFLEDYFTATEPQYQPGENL
Sequence of MERTK (Q12866 whole entry, looked up): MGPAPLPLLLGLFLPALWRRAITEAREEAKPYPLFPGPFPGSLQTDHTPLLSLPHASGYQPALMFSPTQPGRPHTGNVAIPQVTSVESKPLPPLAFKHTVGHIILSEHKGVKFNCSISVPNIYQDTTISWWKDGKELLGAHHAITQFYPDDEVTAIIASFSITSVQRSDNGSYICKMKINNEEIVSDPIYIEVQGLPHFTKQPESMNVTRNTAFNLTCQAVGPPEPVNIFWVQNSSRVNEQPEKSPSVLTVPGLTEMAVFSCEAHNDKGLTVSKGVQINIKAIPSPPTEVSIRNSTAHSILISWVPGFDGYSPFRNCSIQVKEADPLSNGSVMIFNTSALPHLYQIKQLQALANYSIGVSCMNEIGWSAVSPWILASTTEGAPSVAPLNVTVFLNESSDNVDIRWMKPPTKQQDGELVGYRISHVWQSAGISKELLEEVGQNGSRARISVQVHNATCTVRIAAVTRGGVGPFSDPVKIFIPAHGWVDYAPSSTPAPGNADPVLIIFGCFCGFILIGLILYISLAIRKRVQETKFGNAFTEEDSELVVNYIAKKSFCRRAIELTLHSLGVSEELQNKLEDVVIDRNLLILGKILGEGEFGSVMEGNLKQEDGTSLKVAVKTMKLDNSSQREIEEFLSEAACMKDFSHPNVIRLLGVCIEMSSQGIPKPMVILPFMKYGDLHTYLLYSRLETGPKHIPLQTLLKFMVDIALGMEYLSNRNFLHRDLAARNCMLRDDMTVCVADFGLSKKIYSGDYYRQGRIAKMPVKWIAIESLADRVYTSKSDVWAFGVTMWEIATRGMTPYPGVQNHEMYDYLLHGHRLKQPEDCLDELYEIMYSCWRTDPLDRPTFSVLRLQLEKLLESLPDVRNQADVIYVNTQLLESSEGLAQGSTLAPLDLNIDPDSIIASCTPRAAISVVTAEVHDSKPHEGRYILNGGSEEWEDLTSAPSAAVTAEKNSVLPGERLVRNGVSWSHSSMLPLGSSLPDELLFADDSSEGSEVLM

SH2 binding enrichment [14]	SH2 binding enrichment [15]	SH2 binding enrichment [16]	Sequence	phosphorylation enrichment [1]	phosphorylation enrichment [2]	phosphorylation enrichment [3]	phosphorylation enrichment [4]	phosphorylation enrichment [5]	phosphorylation enrichment [6]	phosphorylation enrichment [7]	phosphorylation enrichment [8]	phosphorylation enrichment [9]	phosphorylation enrichment [10]	phosphorylation enrichment [11]	phosphorylation enrichment [12]	phosphorylation enrichment [13]
0.806	1.07	0.569	AVAFLYFKSIG [ADGRL4_Y301_V300L_YF]	1.14	1.62	0.516	0.649	1.33	0.483	0.837	0.549	0.478	0.441	0.683	0.851	0.605
1.7	1.87	1.98	HRLSTYTKMLF [CHST8_Y251]	1.18	1.52	0.744	0.655	1.22	0.443	0.74	0.428	0.707	0.585	0.723	1.02	0.689
1.78	1.24	1.27	ITNVLYHVVGW [GBA_Y412_L410V]	1.06	1.25	4.59	1.32	1.87	3.01	5.06	6.43	6.81	3.13	2.31	4.13	1.82
0.728	0.555	0.581	QDLRLYRPHLA [BTK_Y617_G613D]	0.578	0.931	0.548	0.467	1.17	0.505	0.488	0.358	0.363	0.474	0.517	0.571	0.5
0.734	0.793	0.438	YGSSSYGGAGG [RPA2_Y14]	0.457	0.626	0.39	0.305	0.476	0.414	0.409	0.35	0.359	0.442	0.714	0.899	0.381
0.718	0.64	0.414	RYVTRHIYNRE [HLA-DQB1_Y62_Y62H]	0.966	0.777	0.662	0.795	0.589	0.73	0.525	0.291	0.857	0.874	0.525	0.751	0.469
0.642	0.576	0.665	PDDPDYSLVDD [PSTPIP2_Y323_N322D]	1.76	1.97	0.707	0.963	2.02	0.569	1.01	0.568	0.668	0.648	1.13	1.04	0.894
0.749	0.933	0.817	RLSPEYKQNEI [GJB1_Y243]	0.82	0.682	0.584	0.555	0.59	0.403	0.446	0.481	0.621	0.72	0.468	0.821	0.491
0.747	0.72	0.529	VNKIYHPDFIV [LIG3_Y768_Y768H]	0.62	0.715	0.481	0.417	0.796	0.446	0.589	0.453	0.483	0.484	0.355	0.562	0.388
0.592	0.554	4.29	VEDHFYEGGIG [TKT_Y564_YF]	1.24	1.12	0.538	0.543	1.13	0.684	0.875	0.58	0.575	0.594	0.63	0.893	0.704
1.08	0.714	0.486	TLKVGYTEKQR [EPHA3_Y659]	0.417	0.378	0.353	0.299	0.407	0.27	0.351	0.404	0.322	0.328	0.259	0.369	0.386
0.934	0.83	0.545	RTLTHYKSAVK [ASNS_Y555]	0.532	0.813	0.5	0.411	0.801	0.35	0.545	0.35	0.702	0.588	0.678	0.563	0.312
0.792	0.726	2.48	AIYEGYALPHA [ACTC1_Y171_P166A]	1.77	1.37	13.7	30.1	0.789	15.9	0.773	0.761	13.8	11.3	20.8	18.1	22.6
0.967	1.08	14.9	CDSSGYWTPEE [PAPPA2_Y908]	1.25	1.47	0.555	0.654	1.22	0.454	0.783	0.579	0.494	0.508	0.676	0.727	0.556
1.04	0.723	0.676	REGAKYVSHCA [ASS1_Y113_G117C]	0.776	0.86	0.489	0.506	0.652	0.822	0.445	0.643	0.504	0.516	0.618	0.825	0.633

The remaining lines, values behind:

Sequence	SH2 binding enrichment [14]	SH2 binding enrichment [15]	SH2 binding enrichment [16]	phosphorylation enrichment [1]	phosphorylation enrichment [2]	phosphorylation enrichment [3]	phosphorylation enrichment [4]	phosphorylation enrichment [5]	phosphorylation enrichment [6]	phosphorylation enrichment [7]	phosphorylation enrichment [8]	phosphorylation enrichment [9]	phosphorylation enrichment [10]	phosphorylation enrichment [11]	phosphorylation enrichment [12]	phosphorylation enrichment [13]
PSDLLYILDIQ [ITGA2B_Y845]	1.19	0.492	0.571	2.77	2.33	1.57	1.06	2.24	2.82	1.91	1.35	2.82	4.22	1.07	1.17	1.32
QNTGDYYDLYG [PTPN11_Y62]	0.911	0.725	0.849	5.36	1.29	4.7	17.8	5.11	5.48	16.1	17.1	4.37	5.07	16.7	1.1	1.31
IHFAIYLLKYS [ARMC9_Y107]	1.44	0.955	0.726	1.09	1.16	0.463	0.59	0.917	0.516	0.686	0.368	0.425	0.446	0.486	0.753	0.486
LWEGSYGKVKE [STK11_Y60_G56W]	0.645	1.21	0.507	0.872	2.28	0.678	0.491	1.08	0.623	0.77	0.587	0.509	0.721	0.476	0.69	0.647
AAGGRYDGLLG [HARS2_Y364_V368L]	0.785	0.633	0.545	0.631	0.85	0.459	0.415	0.645	0.548	0.531	0.457	0.451	0.468	0.471	1.01	0.452
QNTGDYCDLFG [PTPN11_Y62_Y63C_YF]	0.827	0.491	0.723	3.53	1.41	0.696	8.46	1.3	0.681	3.7	5.82	0.806	0.789	9.89	1.17	0.966
MIHSAYALGGL [CPS1_Y590_R587H]	0.883	0.64	0.716	0.53	0.592	0.464	0.428	0.502	0.566	0.471	0.388	0.409	0.489	0.36	0.373	0.626
NAGDFYDLFGG [PTPN11_Y63_T59A_YF]	0.642	0.635	0.497	1.11	1.16	3.55	0.564	0.971	5.68	0.769	0.455	2.72	6.02	0.651	0.762	2.43
LRFDSYSSFCN [SLC20A2_Y433_YF]	0.805	0.612	0.519	1.54	1.52	0.687	0.734	1.37	0.464	1.1	0.703	0.479	0.642	0.736	0.833	0.617
VDTLWYKFLKR [EPM2A_Y86_F84L]	0.943	0.573	0.426	0.868	1.11	0.441	0.763	0.892	0.411	0.611	0.414	0.374	0.366	0.46	0.68	0.466
ATPKGYEPDAS [OTC_Y223]	0.933	1.02	0.557	0.738	0.843	0.444	0.575	0.79	0.501	0.59	0.49	0.489	0.541	0.439	0.729	0.508
ITVPAYFNDSQ [HSPA9_Y196]	1.08	0.878	0.498	0.895	1.06	0.528	0.491	1.02	0.553	0.672	0.581	0.456	0.536	0.473	0.785	0.54
YLTSSYINIST [IL23R_Y178]	11.7	1.9	2.21	0.978	1.18	0.637	0.588	1.81	0.488	1.29	1.27	0.648	0.466	0.735	1.11	0.567
TFAVSYLPDMS [FLNC_Y1602_T1599A_YF]	0.905	1.01	0.566	0.939	1.21	0.5	0.392	0.741	0.466	0.816	0.5	0.441	0.378	0.598	0.61	0.439
EDAHHYLCKEV [JAK2_Y382_A377E]	1.08	0.781	0.603	0.799	0.857	0.439	0.493	0.632	0.542	0.778	0.588	0.411	0.366	0.656	0.657	0.441
NDPMEYAKQHG [ASS1_Y163_L160P]	0.804	0.545	0.457	0.769	0.876	0.467	0.485	0.86	0.389	0.527	0.415	0.465	0.396	0.419	0.718	0.426
ARRHPYFFAPE [ALB_Y172_Y174F]	0.821	0.566	0.525	1.09	0.746	0.402	0.635	0.726	0.58	1.86	2.85	0.588	0.721	0.546	0.538	0.559
LAIERYVVVSK [RHO_Y136_C140S]	0.627	1.33	1.51	0.86	1.04	0.443	3.45	0.744	0.596	0.701	0.843	0.515	0.396	0.499	0.935	0.459
